Source: paper PMC4592949 (eLife, 2015)

T1: recombinant HERC2 2540-2700 (human, UniProt O95714 2540-2700)
T1 construct: HERC2, residues 2540-2700; source: E. coli, purified (Ni-IMAC, Senp1 cleavage, Q-sepharose, Superdex 75); not shown: His6-Sumo, N-terminal, cleaved
T1 sequence (looked up): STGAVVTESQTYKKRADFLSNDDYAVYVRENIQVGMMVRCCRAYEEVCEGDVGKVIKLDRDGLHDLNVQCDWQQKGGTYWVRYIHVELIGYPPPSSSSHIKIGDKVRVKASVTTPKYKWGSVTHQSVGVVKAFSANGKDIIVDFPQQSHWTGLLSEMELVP

B1: NCOA4 383-522-GST (domain or fragment, human, UniProt Q13772-1 383-522, looked up)
chain: SMVTEDWLVQNHQDPCKVEEVCRANEPCTSFAECVCDENCEKEALYKWLLKKEGKDKNGMPVEPKPEPEKHKDSLNMWLCPRKEVIEQTKAPKAMTPSRIADSFQVIKNSPLSEWLIRPPYKEGSPKEVPGTEDRAGKQK
notes: also called NCOA4-GST; source: E. coli BL21 (DE3) Rosetta, purified (Ni-IMAC, glutathione Sepharose, Senp1 cleavage); not shown: His6-Sumo, N-terminal, cleaved; GST, C-terminal, kept
B2: recombinant HERC2 CUL7 domain (amino acids 2553-2639) (domain or fragment)
chain: not shown
notes: also called minimal CUL7 domain; source: E. coli, purified (Ni-IMAC, Senp1 cleavage, Q-sepharose, Superdex 75); not shown: His6-Sumo, N-terminal, cleaved
B3: NCOA4 475-522-GST (domain or fragment, human, UniProt Q13772-1 475-522, looked up)
chain: KAMTPSRIADSFQVIKNSPLSEWLIRPPYKEGSPKEVPGTEDRAGKQK
notes: source: E. coli BL21 (DE3) Rosetta, purified (Ni-IMAC, glutathione Sepharose, Senp1 cleavage); not shown: His6-Sumo, N-terminal, cleaved; GST, C-terminal, kept

Experiments:
Settings in all cases: both partners purified
[1] = target: T2, recombinant FTH1-only ferritin complex, wild type (human, UniProt P02794 2-183); assay: pull-down; NCOA4 383-522-GST on glutathione Sepharose 4B, mixed with 50 μg recombinant FTH1-only or FTL-only complexes; 30 min at 4°C; 150 mM NaCl, 20 mM Tris pH 7.4, 2 mM DTT, 0.5% Nonidet P-40; Coomassie stain
T2 construct: Purified as 450 kDa complexes; also called FTH1^WT; FTH1-only complexes; source: E. coli, purified (Ni-IMAC, Senp1 cleavage, Q-sepharose, Superose 6 gel filtration); not shown: His6-Sumo, N-terminal, cleaved; copies: 24

[2] = target: T3, apoferritin purified from horse spleen (containing both FTH1 and FTL) (horse, UniProt Q8MIP0 1-182; P02791 1-175); assay: pull-down; NCOA4-GST fragments on glutathione Sepharose 4B, mixed with 50 μg apoferritin from equine spleen; 30 min at 4°C; 150 mM NaCl, 20 mM Tris pH 7.4, 2 mM DTT, 0.5% Nonidet P-40; SDS-PAGE and Coomassie stain
T3 construct: ferritin heavy chain (FTH1), horse, from spleen apoferritin; ferritin light chain (FTL), horse, from spleen apoferritin; Ferritin is a complex of 24 subunits, a mixture of heavy and light chains; also called horse spleen apoferritin; apoferritin purified from equine spleen; source: bought: Sigma A3641, apoferritin purified from equine spleen

[3] = target: T1, recombinant HERC2 2540-2700; assay: pull-down; NCOA4-GST fragments on glutathione Sepharose 4B (in one panel pre-treated with DFO), mixed with 50 μg recombinant HERC2 fragments; 30 min at 4°C; 150 mM NaCl, 20 mM Tris pH 7.4, 2 mM DTT, 0.5% Nonidet P-40; Coomassie stain
NCOA4 383-522-GST = target: B1; assay: as above

T3 sequence (Q8MIP0 whole entry, chain 1 of 2, the tested form may be a part): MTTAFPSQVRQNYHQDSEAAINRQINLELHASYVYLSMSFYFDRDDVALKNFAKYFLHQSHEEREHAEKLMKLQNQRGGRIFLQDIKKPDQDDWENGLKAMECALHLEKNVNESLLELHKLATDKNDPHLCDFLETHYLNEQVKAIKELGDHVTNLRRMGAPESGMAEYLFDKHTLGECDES
T3 sequence (P02791 whole entry, chain 2 of 2, the tested form may be a part): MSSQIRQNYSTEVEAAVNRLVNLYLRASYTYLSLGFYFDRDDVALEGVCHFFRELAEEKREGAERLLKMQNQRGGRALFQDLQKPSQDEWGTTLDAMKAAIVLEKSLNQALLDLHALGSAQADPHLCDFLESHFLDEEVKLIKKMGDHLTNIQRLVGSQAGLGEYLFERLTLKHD
T2 sequence (P02794 2-183, one chain of several): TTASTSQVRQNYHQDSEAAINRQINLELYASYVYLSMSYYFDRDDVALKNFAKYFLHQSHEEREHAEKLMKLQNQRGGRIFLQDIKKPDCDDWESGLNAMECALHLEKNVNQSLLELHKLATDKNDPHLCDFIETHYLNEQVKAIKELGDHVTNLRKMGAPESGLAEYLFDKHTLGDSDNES

Row | Binder | binding result [1] | binding result [2] | binding result [3] | binding result (NCOA4 383-522-GST)
1 | B1 | binds | binds | binds | –
2 | B2 | – | – | – | binds
3 | B3 | – | binds | – | –
